We go through 20 sequences from the DeepSol protein solubility set.

This data set in a line: soluble on expression in E. coli; label from the status in PepcDB or PDB records.
For the sequence “MNIAAVAGSPTGDMIEIGQHLRVRHFCYQTAKQRGDIGKIIRIAFAEVKFRCDSQIPLQRQTATNVADMFMHAKNFLHYNDHWQWAIALLWSGMVSRHVIPL”, the “soluble on expression in E. coli” value is reported as “not soluble”.

Regarding “MPSNTSIRSNSNAIKARAPASAPKRPTSAEYVKKYTEYLATGHQIRHALQRLYDLNCSIQVFEECLTEKVILQKYTGQSEYQYPVTLLMNKFDDLRKREIRVANEKWSKNGELSAAMFTNKMVMEQRMKDLEKMDQKTANNLFVAALGDSCFIPKKKVDYSKFKITKRSKSSTSTSPSSSSSETSSPIA”, the “soluble on expression in E. coli” value is “not soluble”.

On to “LTAGKVDIPTPDGKMPAYRAAPAGKKDLPTLLVVSEIFGVHEYIQDVCRRLARLGYQAVAPELFARYGDPTGYTDIGRLRAEVVDKAGDRQVLADLDAAAAWAAANGGNSSRLGILGFCWGGRIVWLYAAHNPGLKAGAAWYGQLGGQASELKPRSVLESIGDLKAPVLGAYGGKDAGIPLSDVDRMRLALAKGPRAARDSRIDVYPEAPHAFHADYRPSYRKAEAEQAWQRMLDWFGQH”, for which the “soluble on expression in E. coli” value is “not soluble”. Consider “MGSDKIHHHHHHMVVLAPHIEWLMETVHIISGLNDGGAEAVLYRLCSSDKAAEHYVISLMDEGKYGALLREAGVQVSCLSMPRGRVTLGGLWRLWRLLRQIRPQAVQTWMYHADLVGGLIARLAGVKQVFWGIHHTTLHAGQSRRSTIWVARLCARISSCLPSAIICCAQKALEAHRELGYAAEKLRVIPNGYDLVRFRVDEDARVRLRTEWNTGSRWLIGMVGRFDPLKDHKNLLDALAIVKYRGVDFCCVLAGRGLDQNNAQLMAWLTELDLAGEVKLLGQRMDIPDVMNALDVHVLSSSSEAFPNVVAEAMACGTSVVTTNVGDAALIVGETGWVVPARNPGMLADALLQAYVAMHDEAAWQVRCTAVRQRVEDHFSLERMVENYHLVWQNKL”, for which the “soluble on expression in E. coli” value was “not soluble”. “SMGKEKSKEPRDPDQLYSTLKSILQQVKSHQSAWPFMEPVKRTEAPGYYEVIRFPMDLKTMSERLKNRYYVSKKLFMADLQRVFTNCKEYNPPESEYYKCANILEKFFFSKIKEAGLID”: the “soluble on expression in E. coli” value is listed as “soluble”. As for “MIREDEVRKLVGEMREPFLQRPLGELDAVKEIKIKPEKRHISVKVALAKTGTAEQMQIQQEIVNVLKGAGAETVGLRFEELPEETVAKFRAPSAEKKTLLNMDNPPVFLAVASGKGGVGKSTVSVNLAISLARLGKKVGLIDADIYGFSVPDMMGITVRPTIEGEKLLPVERFGVKVMSMGFFVEENAPVVWRGPMLGKMLNNFFHEVEWGEVDYIVLDLPPGTGDVALDVHTMLPSCKEIIVSTPHPTAAFVAARAGSMAIKTDHEVVGVIENMAYYESAKTGEREYVFGKGGGDKLAEELNVPLLGRIPLKQPDWDKDQFAPSVYDENHPIGEIYQDIAKKIDAKMSVQVLEHHHHHH”, the entry is “soluble”; as for “MKKIATATIATAGIATFAFAQHDADAAENNNSGYNPNDPSSYSYSYTIDQQGQYHYTWQGNWNPSNSDQGHTSNGYSNANSTNNNATQSYTTNNQGTGGKGAVSHSTSNSNVKVSTTSAPSNSNGSNSISNTSGSSNNLYTAGQCTYYVYDKVGGKIGSTWGNANNWASAAAASGYTVNNSPASGSVLQSTAGGYGHVAYVENVNSDGSINVSEMNYGQGAGVVTSRTISASEASGYNYIH”, “not soluble”. Turning to “MGSDKIHHHHHHMIHIKRAPDTETAYLVMKEGFSDYMIPLGLSPEVFQERILERDGNQLEHSFIAYHGERPVAIWLNGLKTIKKKTVMRCGGLAVDPQYRRLGIAKALYDAQLSYAKSLNVDCLMLEVIQGNEPAITLYKSFGYQTVSELGYFHKEESGQVEPLVEIDQVAFERRYIQQDEYIWQQDPGVMKLAKARYYELDGAFIAAVNESIFAILTDEEEVARVATEATRRLAGELYHLQSTNQQVWEELLKAGWQQRDLKQFIMQKPISV”, the “soluble on expression in E. coli” value was “not soluble”. For the sequence “MFRRPDDDDDDYSGRKVIKPKPIAEKYAKKLGSEFSTGKTFVTGSDKSQKDFYGSQQVRNDVMKSSDSGGAPLTEDEKNKLSAKILKAEMKGDTDLVKKLKRKLESGISGDDEPPKSKSKEVTMMRRDREGNILPASSRRSDSDRHGEGSSRMRREYEKSQDLDSMVREEKTGTAGDQLRLFERSLIKSSKIRRHDDESVDDIAEMQKGKKKSDEKDKKRKEKESIKEHKRIERSFDDCSRCIDSSRLKKHNIIAVGINTYLAVVEWDGLDDEHLIIVPTQHCSSTIQLDENVWDEMRLWRKGLVAVWKSQNRDCIFFEMSRHVDSNPHVFIECVPVEQEIGDMASIYFKKAINECEGEYMDNKKLIETKDLRRQIPKGFSYFAVDFGLSNGFAHVIESHDHFPSTFATEIIAGMLDLPPKKWRKRETDEMSKQKSRAENFKKLWEPVDWTKRLKNDSTK”, the “soluble on expression in E. coli” value was “soluble”.

Regarding “MKPKVLLAGGTGYIGKYLSEVIENDAELFTISKYPDNKKTDDVEMTWIQCDIFHYEQVVAAMNQIDIAVFFIDPTKNSAKITQSSARDLTLIAADNFGRAAAINQVKKVIYIPGSRYDNETIERLGAYGTPVETTNLVFKRSLVNVELQVSKYDDVRSTMKVVLPKGWTLKNVVNHFIAWMGYTKGTFVKTEKSHDQFKIYIKNKVRPLAVFKIEETADGIITLILLSGSLVKKYTVNQGKLEFRLIKESAVVYIHLYDYIPRLFWPIYYFIQAPMQKMMIHGFEVDCRIKDFQSRLKSGENMKYTK”, the “soluble on expression in E. coli” value was “not soluble”. As to “MSLELMEEVDRTVHHMQDEAANFPDPADRASQEEEFSLELRARDRERKLIKKIDETLQLIEDEEYGWCDSCGVEIGIRRLEEGHHHHHH”, the “soluble on expression in E. coli” value is on record as “not soluble”. As for “MAAGSGVVPPPLGAGLCTVKVEEDSPGNQESSGSGDWQNPETSRKQFRQLRYQEVAGPEEALSRLWELCRRWLRPELLSKEQIMELLVLEQFLTILPQELQAYVRDHSPESGEEAAALARTLQRALDRASPQVRLEWTLHGTREMA”, the entry is “soluble”; as for “MSLAFEPPRRLVRAFGETAPEGDDWLATLPEVAERAVARRGLTVERVQVPGGRSSLVVLVRTAEGAPAVLKLAPRRARPESERAALVHWGGRGAVQVREEGDEEGVLLLERLHPDVSVRSLPEAKALLEAAGTLRRLWVEPPGSHPFETVAERTGRQAEAMRAGAAADAQVAPLVDAALAARAELLGGPSEQRLLHGTFRQSKVLAGDRMPWLAVGPDPVVGESAFDLARLVRDRVEDLIAQPSGASTTRRRIKRLAESLEVDQERLRGWTLFRAVESGVRARRVGRERDAELLLEFAGWLEGHHHHHH”, “not soluble”. As for “MIPGTIPTSYLVPTADTEATGVVSLSARAAMLNNMDSAPLSNGGDVDLYDAFYQRLLALPESASSETLKDSIYQEMNAFKDPNSGDSAFVSFEQQTAMLQNMLAKVEPGTHLYEALNGVLVGSMNAQSQMTSWMQEIILSGGENKEAIDW”, the entry is “not soluble”. To “MLSVSPLLQSPSSASMRFLSLDAYGRVLDWISWQDAACLYVRNAVSWTLGDPCLSIHGGISRLTGKRSVIALHPIIASRGHARTYVPVPTPALTNQALFARDDHLCLYCGQQFSRFQLTRDHVIPISKGGLDTWENVVTACFHCNSLKANRTPQQAGMRLLAVPYRPSWIEHLILSNRNILADQMAFLKAQLPKRSKLSRNLEHHHHHH” belongs “not soluble”; to “GPGSMGSGYLKRKRQRQELLNDFYSALSLSSFDTTSGQFSKLVTRTVYHYPSSLPFPVLLDDDFPAEPYRSRNKDIKSAIHWGQRKLLLSEIQLLSMYCRPEISYHIVYAGAAPGTHLAFLDEMFSCRHTWELIDPGQFDRAVLEPRANFRLRNEFFTNATAYGINARRLTEVLPALGFVYQNVAVDSVQVDKKAIHEQLQDIVGTLDVARGTEDIPAMYEAPLSLPKGLELLAQVALERNKPLLFISDIRSGSVALPNFEDHVAENMRAQECWTNILHGEHSMLKFRLPYTSKSTKFGGQGAVRETLLIREDGTVPYLRGDMLLPIWTRPTSTEGRLVVPQGAFQKDYNVAHVEDQFFFFNSSVREQVHFNHLVAHDSELDHHYDAAAEVHCLLTYLRFIRPELKTAKTGELRKEVLRVAHSITAHLGITFEDAIRRRDALMINHAKKSQNKAVEGHKDDAYGDEEAEEQEAKSAASKVRAGSNESAAAADGAATSTTAPVPPSEWEQTTRLMVRLSNYDRNRSVWSRNVREEEHSKTSGFWVTTKMPQA”, “not soluble”; to “MSLKSLKAKFRKSDTNEWNKNDDRLLQAVENGDAEKVASLLGKKGASATKHDSEGKTAFHLAAAKGHVECLRVMITHGVDVTAQDTTGHSALHLAAKNSHHECIRRLLQSKCPAESVDSSGKTALHYAAAQGCLQAVQILCEHKSPINLKDLDGNIPLLLAVQNGHSEICHFLLDHGADVNSRNKSGRTALMLACEIGSSNAVEALIKKGADLNLVDSLGYNALHYSKLSENAGIQSLLMSKISQDADLKTEGHHHHHH”, “soluble”. As for “LHPFFRSFALRASAHPVLSADFESAFAAARHAAPATAAAVQTAERLPEWNLTDLYPAMDSPELKADLDKADVACKAFETAFKGKLAALLALPDGGAALGAAVKSYEEVDDLLGRIASYGSLIYAGDTSDPARAKFYGDIQERLTDASTHLLFFTLEMNRLDDAALEAAMADPALGYYRPWVEDLRKDKPYQLDDKIEQLFHEKSNPSRGAWSRLFDETISSLRFTVDGQDLAIEPTLNLMQDPREEVRKSAGLALADTFGKNLRLFTLITNTLAKDKEISDRWRGFEDVASSRHLANRVEKEVVDAMVEAIRVSFPRLSHRYYALKARWFGKDRLEFWDRNAPLPKVETRDIGWGEAKDTVLSAYGAFSPKMADIAKTFFEKSWIDAPVRPGKSPGAFAHPTVPSAHPYVLLNYQGKPRDVMTLAHELGHGVHQVLAARQGALMAPTPLTLAETASVFGEMLTFRRLLDGAETPRARKIMLAQKVEDMINTVVRQTAFYTFERDVHIERRQGELTSEKIGEIWMKVQGESLGPAIHLGAGYETFWTYIPHFIHSPFYVYAYAFGDCLVNSLYAVYENAADGFADRYLEMLSAGGTKHHAELLAPFGLDARDPAFWQTGLSLIDRMISELESMEG”, the “soluble on expression in E. coli” value is reported as “soluble”. With “MFNFANFYQLIAQDTRLQPWLNVLPQQLTDWQNAEHGDFGRWLKALNKIPEGSPDQVDIKNSVTISNDTPFHEGELKKLENLLRTFHPWRKGPYTVHGIHIDTEWRSDWKWDRVLPHISPLKNRSVLDVGCGNGYHMWRMLGEGARLCVGIDPSHLFLIQFEAIRKLMGGDQRAHLLPLGIEQLPKLEAFDTVFSMGVLYHRRSPLDHLIQLKDQLVSGGELVLETLVIEGDENAVLVPTSRYAQMRNVYFFPSAKALKVWLELVGFEDVHIVDENVTSVDEQRTTDWMTHNSLPDYLDPNDPSKTVEGYPAPRRAVLVARKP”, the “soluble on expression in E. coli” value is listed as “not soluble”. Take “MEKYAVILGKNPELSLVELKAFSRRFRLGVRILEERIYGSNKSFAIIQAKEDIEKYFRWIGGSLKLVRLIGEGVDSIRDLEYSKLFTVSVYGRRVDWKEWRRFGSMIKEVFKEKDSAKFFKPANTYAMPSELILKGFPKVKDVVLLFVDDKVLVGETVRVTDPFELKKLDVERPVVRPTISIPPRLARVMVNLSEIRRGNVLDPFCGTGTIVMELTLQGLNAYGTDIEEGRVRDAKKNIDWLRKEFRIRKYPVLKVCDVRRLRKCFPRTRFDAIITEPYMGKPLKYKPSRGEAIKIAKGLDRLYYQAFESFADVLKRGSIIVFVFPAFSLSNGEVYRRNRPWLEELGFKVLYRVSEGEEEHRIVRDIHVIKFIR”: the “soluble on expression in E. coli” value is recorded as “soluble”.
